Laboratory results: paper PMC7687367

Columns and labels:
[1] = target: SARS-CoV-2 RBD, His-tagged, for antibody binding studies (SARS-CoV-2) (UniProt P0DTC2); test: BLI
[2] = target: SARS-CoV RBD, His-tagged, for antibody binding studies (SARS-CoV) (UniProt P59594); test: BLI

| Substance | Kd [1] | Kd [2] |
| --- | --- | --- |
| COVA1-16 Fab, His-tagged | 46 nM | 405 nM |
| COVA1-16 IgG1 antibody | 0.2 nM | 125 nM |
